The results in this text go back to patent US20250270737A1, “Antibodies That Bind GLP1R” (Twist Bioscience Corporation, priority 2019, published 2025).

In the assay the target is GLP1R (Homo sapiens, UniProt P43220). Kind of assay: Binding assay with flow cytometry on flag-GLP1R-GFP expressing CHO cells (CHO-GLP1R). The note with it: 100 nM IgG. How it is done:
Briefly, flag-GLP1R-GFP expressing CHO cells (CHO-GLP1R) and CHO-parent cells were incubated with 100 nM IgG for 1 hour on ice, washed three times and incubated with Alexa 647 conjugated goat-anti-human antibody (1:200) for 30 minutes on ice, followed by three washes. All incubations and washes were performed in buffer containing PBS and 0.5% BSA. For titrations, IgG was serially diluted 1:3 starting from 100 nM. […] Analyses of binding assays with IgG titrations presented as binding curves plotting IgG concentrations against MFI (mean fluorescence intensity) are seen in FIGS. 15A-15H. Flow cytometry data of binding assays presented as dot plots with 100 nM IgG are seen in FIGS. 16A-16I.
The GLP1R IgGs were then assayed in binding assays coupled to flow cytometry analysis using similar methods as described in Example 12. Briefly, stably expressing Flag-GLP1R-GFP CHO cells or CHO-parent cells were incubated with primary IgG (100 nM or 1:3 titrations). Secondary antibody incubation involved Alexa 647 conjugated goat-anti-human IgG. Flow cytometry measured the GFP signal against the Alexa 647 signal to identify IgGs that specifically bound to the target (GLP1R).
A general note: A flow cytometer gives signals particle by particle.

Chain of GLP1R (P43220 24-463): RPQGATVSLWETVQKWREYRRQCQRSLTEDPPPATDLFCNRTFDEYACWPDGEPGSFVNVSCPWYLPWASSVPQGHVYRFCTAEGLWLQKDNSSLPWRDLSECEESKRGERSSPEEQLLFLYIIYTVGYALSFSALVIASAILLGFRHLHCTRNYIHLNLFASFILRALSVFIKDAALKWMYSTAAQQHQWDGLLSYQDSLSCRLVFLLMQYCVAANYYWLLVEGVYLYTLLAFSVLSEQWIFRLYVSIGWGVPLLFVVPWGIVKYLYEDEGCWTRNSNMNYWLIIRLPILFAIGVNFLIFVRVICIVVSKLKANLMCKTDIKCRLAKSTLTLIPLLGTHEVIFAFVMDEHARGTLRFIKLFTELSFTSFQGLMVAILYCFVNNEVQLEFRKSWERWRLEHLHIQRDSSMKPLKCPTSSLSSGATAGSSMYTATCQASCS

B1: GLP1R-242: GLP1R scFv clone reformatted to IgG2; CDR-H3 SEQ ID NO 2300, heavy 2307, light 2314 (antibody)
heavy: MEWSWVFLFFLSVTTGVHSQVQLVQSGAEVKKPGSSVKVSCKASGGTFSSYEISWVRQAPGQGLEWMGGIIPILGIANYAQKFQGRVTITADESTSTAYMELSSLRSEDTAVYYCAKHMSMQADTGTFTSDVSSYLEGQAAKEFIAWLVKGEFSSRADLVGDAFDVWGQGTLVTVSSASASTKGPSVFPLAPCSRSTSESTAALGCLVKDYFPEPVTVSWNSGALTSGVHTFPAVLQSSGLYSLSSVVTVPSSNFGTQTYTCNVDHKPSNTKVDKTVERKCCVECPPCPAPPVAGPSVFLFPPKPKDTLMISRTPEVTCVVVDVSHEDPEVQFNWYVDGVEVHNAKTKPREEQFNSTFRVVSVLTVVHQDWLNGKEYKCKVSNKGLPAPIEKTISKTKGQPREPQVYTLPPSREEMTKNQVSLTCLVKGFYPSDIAVEWESNGQPENNYKTTPPMLDSDGSFFLYSKLTVDKSRWQQGNVFSCSVMHEALHNHYTQKSLSLSPG
light: MSVPTQVLGLLLLWLTDARCQSVLTQPPSVSAAPGQKVTISCSGSSSNIENNDVSWYQQLPGTAPKLLIYGNDQRPSGIPDRFSGSKSGTSATLGITGLQTGDEADYYCGTWDNTLSAGVFGGGTKLTVLGQPKAAPSVTLFPPSSEELQANKATLVCLISDFYPGAVTVAWKADSSPVKAGVETTTPSKQSNNKYAASSYLSLTPEQWKSHRSYSCQVTHEGSTVEKTVAPTECS
Take B1: the “binding to CHO-GLP1R” value is reported as “found to bind to CHO-GLP1R”.

B2: GLP1R-240: GLP1R scFv clone reformatted to IgG2; CDR-H3 SEQ ID NO 2298, heavy 2305, light 2312 (antibody)
heavy: MEWSWVFLFFLSVTTGVHSQVQLVQSGAEVKKPGSSVKVSCKASGGTFNNYGISWVRQAPGQGLEWMGGIIPVFGTANYAQKFQGRVTITADESTSTAYMELSSLRSEDTAVYYCARDMYYDFFGLGTFTSDVSSYLEGQAAKEFIAWLVKGVSPEVVPADDAFDIWGQGTLVTVSSASASTKGPSVFPLAPCSRSTSESTAALGCLVKDYFPEPVTVSWNSGALTSGVHTFPAVLQSSGLYSLSSVVTVPSSNFGTQTYTCNVDHKPSNTKVDKTVERKCCVECPPCPAPPVAGPSVFLFPPKPKDTLMISRTPEVTCVVVDVSHEDPEVQFNWYVDGVEVHNAKTKPREEQFNSTFRVVSVLTVVHQDWLNGKEYKCKVSNKGLPAPIEKTISKTKGQPREPQVYTLPPSREEMTKNQVSLTCLVKGFYPSDIAVEWESNGQPENNYKTTPPMLDSDGSFFLYSKLTVDKSRWQQGNVFSCSVMHEALHNHYTQKSLSLSPG
light: MSVPTQVLGLLLLWLTDARCQSVLTQPPSVSAAPGQKVTISCSGSSSSIGNNYVSWYQQLPGTAPKLLIYANNKRPSGIPDRFSGSKSGTSATLGITGLQTGDEADYYCATWSSSPRGWVFGGGTKLTVLGQPKAAPSVTLFPPSSEELQANKATLVCLISDFYPGAVTVAWKADSSPVKAGVETTTPSKQSNNKYAASSYLSLTPEQWKSHRSYSCQVTHEGSTVEKTVAPTECS
In the case of B2, the “binding to CHO-GLP1R” value is reported as “found to bind to CHO-GLP1R”.
